Legend:
[1] = Stability and tolerance of transplanted skin organoids in immunocompetent hosts; type: in vivo, mouse; settings: CD1 hosts
Source text: For grafting with skin organoids, CD1 (isogenic mouse keratinocyte transplantation) males or Nude (human keratinocyte transplantation) females with the ages of 6-8 weeks were anesthetized. A silicone chamber bottom with the interior diameter of 0.8 cm and the exterior diameter of 1.5 cm was implanted on its shaved dorsal mid-line skin, which was used to hold the skin graft. A chamber cap was installed to seal the chamber right after a piece of graft was implanted. About one week later, the chamber cap was removed to expose the graft to air. A single dose of 0.2 mg α-CD4 (GK1.5) and 0.2 mg α-CD8 (2.43.1) antibodies was administered intraperitoneally for skin grafting.
Optical imaging was performed in the integrated small animal imaging research resource (iSAIRR) at the University of Chicago. Bioluminescence images were acquired on an IVIS Spectrum (Caliper Life Sciences®, Alameda, CA) after animal was injected with luciferin (100 mg/kg). […]
Grafted cells in immunocompetent hosts readily expressed exogenous genes, such as Luciferase and Histone H2B-RFP (FIG. 1B-D), which were transduced to the cells with lentivirus. […] Importantly, the tissue organoid with expression of exogenous gene, such as Luciferase and H2B-RFP, was stable in vivo for more than 5 months in immunocompetent hosts, as determined by intravital bioluminescence imaging and tissue histology. […]

[2] = test system: mouse epidermal stem cells; experiment: Cell proliferation and differentiation of engineered mouse epidermal cells in vitro (cell cycle FACS, calcium shift western blot); type: cell-based
Description: Primary human neonatal epidermal keratinocytes were obtained from Thermo Fischer® (C0015C), and cultured with Epilife® medium (Thermo Fischer, M-EPICF-500) with manufacturer's recommended procedures. Calcium shift was performed to induce differentiation of primary keratinocytes by increasing the calcium concentration in culture media to 1.5 mM.
Propidium iodide (PI) staining followed by flow cytometry were used to determine the effect of cell cycle profiles. Mouse and human epidermal cells were cultured in two 6 cm cell culture dish for 24 hours, respectively. Cells were trypsinized, and 1×10^5 cells from each dish were collected, followed by one PBS wash. […] After staining, the cells were analyzed immediately using flow cytometer BD FACSCanto™ II (BD Biosciences, San Jose, CA) with an excitation wavelength at 488 nm and emission at 585 nm. DNA content and histograms of cell cycle distribution were analyzed using FlowJo™ software, version 10 (FLOWJO LLC, OR).
Western blotting was performed as described previously (Blanpain et al.). […] Visualization and quantification was carried out with the LI-COR Odyssey® scanner and software (LI-COR Biosciences).
Propidium iodide (PI) staining followed by flow cytometry were used to determine the effect of cell cycle profiles. […] DNA content and histograms of cell cycle distribution were analyzed using FlowJo™ software, version 10 (FLOWJO LLC, OR). […]

## GLP1
[1]
  rejection of skin grafts after transplantation: No significant rejection of the skin grafts has been observed
[2]
  effect of expression on cell proliferation / differentiation in vitro: did not significantly change cell proliferation
